In patent publication US20130142802A1 one finds %Gated (marker M1) and % positive staining of the cell population data, which are given here for one substance.

Test [1] has as its target native FGFR2-IIIc on rat prostate cancer cell line AT3B-1 (rat) (UniProt F1LNW0). The test can be described thus: flow cytometry on rat prostate cancer cell line AT3B-1; marker M1 9-7844, 1840 of 15000 events; the panel without primary antibody also prints 12.27. Background: A flow cytometer gives signals particle by particle.
Test [2] has the same target. The test is described as follows: flow cytometry on AT3B-1 cells; no-primary control 11%.

In test [1], human IgG (negative control) (antibody) gave a %Gated (marker M1) of 12.3%. This substance came in with a % positive staining of the cell population in test [2] of 12%.
